# According to patent US6010897, “Expression of signal-peptide-free staphylokinases” (dated 2000):
# B1: N10ΔSAK42D (SAK42D shortened by 10 amino acids at the N-terminus) (other)
# chain: KGDDASYFEPTGPYLMVNVTGVDGKRNELLSPRYVEFPIKPGTTLTKEKIEYYVEWALDATAYKEFRVVELDPSAKIEVTYYDKNKKKEETKSFPITEKGFVVPDLSEHIKNPGFNLITKVVIEKK
# B2: N14ΔSAK42D (SAK42D shortened by 14 amino acids at the N-terminus) (other)
# chain: ASYFEPTGPYLMVNVTGVDGKRNELLSPRYVEFPIKPGTTLTKEKIEYYVEWALDATAYKEFRVVELDPSAKIEVTYYDKNKKKEETKSFPITEKGFVVPDLSEHIKNPGFNLITKVVIEKK
# B3: SAK42D (mature native staphylokinase of S. aureus phage 42D, expressed free of signal peptide in E. coli TG1(pMEX602sak)) (other)
# chain: SSSFDKGKYKKGDDASYFEPTGPYLMVNVTGVDGKRNELLSPRYVEFPIKPGTTLTKEKIEYYVEWALDATAYKEFRVVELDPSAKIEVTYYDKNKKKEETKSFPITEKGFVVPDLSEHIKNPGFNLITKVVIEKK
# Molecular target: human plasminogen, isolated from human plasma and immobilized on Protein-Pak epoxy-activated carrier (human, UniProt P00747)
# Assay: analytical affinity chromatography on immobilized human plasminogen, 16° C.
row,Molecule,Kd
1,B1,2210 nM
2,B2,4400 nM
3,B3,1480 nM

# Molecular target: plasminogen (species not stated)
# Assay: not given
row,Molecule,specific activity in µmol plasmin/(µmol SAK × min) (µmol plasmin/(µmol SAK × min))
1,N10ΔSAK42D (SAK42D shortened by 10 amino acids at the N-terminus),22.7
2,N14ΔSAK42D (SAK42D shortened by 14 amino acids at the N-terminus),8.1
3,"SAK42D (mature native staphylokinase of S. aureus phage 42D, expressed free of signal peptide in E. coli TG1(pMEX602sak)) (from UniProt P15240)",16.2
4,SAKM26C (artificial allelic SAK form),21.1
5,SAKM26L (artificial allelic SAK form),36.6
